Results reported in publication PMC3579138.
pKd: −log10 of the molar value. Blank lines part the entries; values can stand above or below the substance they belong to.

Legend:
[1] = biological target: K63-polyubiquitinated Sic1 (UniProt P38634)
[2] = biological target: K63-polyubiquitinated Nedd4 (resin-bound GST-Nedd4, autoubiquitinated) (UniProt P46934); assay: pull-down
[3] = biological target: K48-linked tetraubiquitin (Homo sapiens) (UniProt P0CG48); conditions: cited from earlier work
[4] = biological target: K63-linked tetraubiquitin (Homo sapiens) (UniProt P0CG48); conditions: cited from earlier work

K63-polyubiquitinated Nedd4 (resin-bound GST-Nedd4, autoubiquitinated), sequence (P46934 whole entry): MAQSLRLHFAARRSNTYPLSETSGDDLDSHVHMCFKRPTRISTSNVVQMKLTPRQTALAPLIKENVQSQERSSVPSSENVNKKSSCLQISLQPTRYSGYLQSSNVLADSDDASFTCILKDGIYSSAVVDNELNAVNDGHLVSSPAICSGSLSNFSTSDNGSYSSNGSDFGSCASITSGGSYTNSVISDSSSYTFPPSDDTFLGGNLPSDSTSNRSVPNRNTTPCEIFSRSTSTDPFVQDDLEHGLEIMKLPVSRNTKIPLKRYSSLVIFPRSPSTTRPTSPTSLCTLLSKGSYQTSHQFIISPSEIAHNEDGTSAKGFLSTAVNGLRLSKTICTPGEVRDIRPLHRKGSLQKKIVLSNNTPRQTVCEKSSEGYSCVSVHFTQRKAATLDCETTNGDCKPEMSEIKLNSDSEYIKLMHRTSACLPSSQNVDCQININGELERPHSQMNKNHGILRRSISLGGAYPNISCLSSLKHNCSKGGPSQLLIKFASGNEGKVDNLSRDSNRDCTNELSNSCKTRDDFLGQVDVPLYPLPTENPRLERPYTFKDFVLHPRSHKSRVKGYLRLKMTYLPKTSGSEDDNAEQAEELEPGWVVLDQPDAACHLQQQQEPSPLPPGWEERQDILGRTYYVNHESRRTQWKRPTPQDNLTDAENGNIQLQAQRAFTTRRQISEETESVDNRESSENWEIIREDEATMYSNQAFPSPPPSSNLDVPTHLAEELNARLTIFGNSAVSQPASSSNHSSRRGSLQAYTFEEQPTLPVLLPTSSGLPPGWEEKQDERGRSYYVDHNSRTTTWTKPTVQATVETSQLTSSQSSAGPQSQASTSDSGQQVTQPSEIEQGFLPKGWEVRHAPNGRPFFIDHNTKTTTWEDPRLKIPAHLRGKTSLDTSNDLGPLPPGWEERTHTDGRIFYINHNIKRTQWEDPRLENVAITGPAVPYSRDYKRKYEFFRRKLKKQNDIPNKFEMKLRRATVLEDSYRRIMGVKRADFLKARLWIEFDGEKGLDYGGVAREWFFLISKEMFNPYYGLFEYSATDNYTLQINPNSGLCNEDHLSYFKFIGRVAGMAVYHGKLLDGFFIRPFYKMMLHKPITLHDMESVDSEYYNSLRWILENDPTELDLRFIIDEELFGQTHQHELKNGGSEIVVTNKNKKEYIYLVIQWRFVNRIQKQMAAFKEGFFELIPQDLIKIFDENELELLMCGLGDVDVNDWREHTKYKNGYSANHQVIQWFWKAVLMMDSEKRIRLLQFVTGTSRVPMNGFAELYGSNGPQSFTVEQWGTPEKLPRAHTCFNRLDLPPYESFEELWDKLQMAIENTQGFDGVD
hHR23A UBA2, sequence (P54725 315-361): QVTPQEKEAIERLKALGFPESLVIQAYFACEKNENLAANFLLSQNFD
Hrs, purified recombinant, sequence (O14964 whole entry): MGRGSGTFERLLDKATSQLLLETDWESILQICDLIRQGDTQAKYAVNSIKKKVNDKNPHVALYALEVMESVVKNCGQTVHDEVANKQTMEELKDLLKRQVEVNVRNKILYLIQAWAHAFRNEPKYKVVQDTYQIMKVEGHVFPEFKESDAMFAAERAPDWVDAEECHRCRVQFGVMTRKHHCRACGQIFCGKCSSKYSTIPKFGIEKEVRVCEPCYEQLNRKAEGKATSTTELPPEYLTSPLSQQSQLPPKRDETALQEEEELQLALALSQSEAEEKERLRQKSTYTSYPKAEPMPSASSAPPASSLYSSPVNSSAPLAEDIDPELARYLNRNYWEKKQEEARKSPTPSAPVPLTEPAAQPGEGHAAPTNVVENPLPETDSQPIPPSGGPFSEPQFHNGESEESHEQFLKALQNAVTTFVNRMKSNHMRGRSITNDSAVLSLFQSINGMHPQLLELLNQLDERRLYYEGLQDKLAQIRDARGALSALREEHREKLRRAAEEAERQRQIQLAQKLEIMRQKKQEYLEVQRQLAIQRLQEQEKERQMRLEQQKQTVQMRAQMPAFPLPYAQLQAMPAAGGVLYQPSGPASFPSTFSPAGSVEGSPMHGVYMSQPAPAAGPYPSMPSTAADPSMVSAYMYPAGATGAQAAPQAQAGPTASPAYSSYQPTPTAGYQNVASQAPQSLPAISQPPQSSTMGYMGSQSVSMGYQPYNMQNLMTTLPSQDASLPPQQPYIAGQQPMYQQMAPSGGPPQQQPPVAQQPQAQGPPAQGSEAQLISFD

percent decrease of conjugate binding to proteasomes at 80nM [1]: 80%
Substance: Hrs, purified recombinant (from UniProt O14964 1-777) (natural protein)

percent binding with lysate of cells with Hrs and STAM knocked down [2]: 35% | percent binding with lysate of control cells [2]: 19% | percent reduction of binding by the cell extract [2]: < 80%
Substance: 26S proteasomes purified from rabbit muscle (complex)

Substance: hHR23A UBA2 (from UniProt P54725)
pKd [3]: 5.10 | pKd [4]: 4.55
